Assay [1] addresses T1, Dyh5 (γ-HC), ODA heavy chain (Tetrahymena thermophila, UniProt I7M6H4 1-4168). Nature of the assay: cross-linking.
The target of assay [2] is T2, Dyh3 (α-HC), ODA heavy chain (Tetrahymena thermophila, UniProt Q22A67 1-4620). Kind of assay: cross-linking.
Assay [3] concerns the target T1, Dyh5 (γ-HC), ODA heavy chain. Kind of assay: cryo-EM structure.
The target in assay [4] is T2, Dyh3 (α-HC), ODA heavy chain. Nature of the assay: cryo-EM structure.

B1: Q22MS1, recombinant, C-terminal 2xStrep (natural protein, Tetrahymena thermophila, UniProt Q22MS1 1-1892, looked up)
chain: MFQSYLQDIEKENNSSIYNAQAQQNSSTQQSIWDDYIDRQLEHLVVEYQFDFDKIAQRLAGVIGDKQQQKVNFDTCRQRWKQLHLRRYEDKDKDRLDRVSKSVMKMEDPNNALKVQELVEKLPKARQNKDFLKISDEEKLQAFYLNDKGEKIQPTTFNVLKDSVMGIKDKTERERVFKKQQEEFFKSLEKLAGEQDEDMFTKPLIFRAKFTEPTNFNFIVEREELTREQAQRIMSQKVQIKGAGLVPPEPEMGIKMDNYVSMFARPDEEEEELKKKDQEKEVQVNQQIMQDQQETKEEQERDQEELKKQMELTEEEKKKQQEQEEEKKKINVDLYLAERGLKSIDEALNSLEKMRSKVKVNNYFEEAQTEDKKLKEQKEKNQQKVDNEDQIRQEIIKQGLEQLKQKEQGDQLVQFHENQIKKDIKELNEIIGDNKSKNVKNQTQQPNKAVEEEEEIILEKKNDQSKKVPTKKGIFSQFAEEEDSGSEDEVGNDEEELDDELYLQAQRIGLKSDAEIDLFITKKKEERKANMLNKKKVQFSEFSEQKQISEDTDELLAKQEKQIKQKQQFLEKLKKKSENEAGENDESNQEGSQNWRDLEFSAGMAFKRQLEEEKMQRMIKEQFEEEQRRKADQERIRQIQEEYHLKKLDIETKIKLREPLNLEKVNQEKWKEYIEAQQKRREEIEKEFEEKQRIQTEQEEKEQKENLIKEKIHFFEQKIKNFPSNDPFKCFFDDQVSYLSQISSLPSKITTKIADLKKYDISRDGITSRYQILIFPYLDKCQEFVFQFLSFFLRNSFFRQPPSEKELGEIVSENPLDEIPCQRLSSKGFPFCLVSFYIGSHTSEINDEQDEQYLSNYLNDAIKFDKLINDDKLQKSIYLFFDTYIGRGQDTLSKQLDLALTEFLSDGCLDQAIRKYGEKVINRDMKLSDFKTAYYKNMEIAKKLFNESNTFHSICPTKTSYHQTNQLAIHQNKKKQLLPTSPSNSPSIISHSHGNKWETSVIIIRNYSEIQNPSALRQQQNRGVDFSNASDLMQQDVTTEQYSNLSESLSNLVPSHTEISQRQKQQMTDVIHYTLNKLQEKGIQILGMKSFFFDQKTVQEFKSYVENINFNTNTNQPIVVISVAGFDLHSKLKKMVGSEDAQLAKRVEPNSLNALFSTGRDDSIIIPYNKALSRRLISYFFCGRLEKIQTVQDIQVIEGLTNKKQLYLTKPKPFNPVFLLNSQPIREHICLLSSKFLPQQFCEVIRKIQARGFELLNIRVIDSSNLSAILKKDEDFSAFIENENLQELNSGENDYERINLVLHIQGANISSLRNTLLNKIIDYNPFLHPSKREIFYYTKDDLSLTLLKDIFFNRHIKSNFTPSERFPLFIALWPFLNDYEEKEGLTASQAVPLGNDLKIMSSYGLELLSVSKIFKSQIQQKLNTSIEEETEHVDLKSILHQLIQNNIQINSITKKKPEFSTFCSRLGEEILSQDFYLAVFRYQGDRQSKHLDKLFTEVPFVHSNKTINESTVVTHGAKQTPHTQAKPLPTEFLTLFFLDSSAQQVSNFTKLLGIGAFDDWSFKGSFIFDLPSSGYTGEIETLIILSEDVVKTLLLVGLVKIIENNQFKIKSFFKHRCSREFSEVIQENLLQAFSGYESQMHDQGTKLQKIKASLDNLMTRLQGESMYFLVLSKENGIFNGKKILFELAEKYSVFKKETINVESSTEYMLDKGMYCSLNYKCQQREFKELQFMSQQILSMAHENNQEQQDVDKMYDNQLVMVIRIDQQIQLYEVFRKLQSDLKFKIIHFLVMRQFEWTDIQYISSHFTPKFEAQHIQKYFEINNDGIYCIVHLDSKNSVSLSDAFGTLRLNEKGEFKQVIRSSLFGKQEVFFIYTNNPQHVKKLSAYAFKSSE
As to B1, the binding result in assay [1] and in assay [2] was “binds” throughout.

B2: Shulin (Q22YU3), recombinant full-length, C-terminal 2xStrep (natural protein, Tetrahymena thermophila, UniProt Q22YU3 1-1200, looked up)
chain: MFNFFSSANINQNIPKYSVNDFVFRLKKIEKIVVKEGLDGFLLINGVDSRENTEYVKLTNWLFLGNSGLEIEENEYLNQIYSDMIVLIKKGTTHIFIDPEALNSLQTLIYSIPNVDVFCPTEKQYEDKDEMELLKMAFFLRVMKPTKKVGILLGQKDKGKINSIEKWPLIQSYGLEELGVGFFSMNHEVVDLTLRLNAVYKNYDKFFVSKLIYVVAKRLTGHFNSAAGQLGDMKMHKRNLATESQLTEIFRDTYEIEEISKWVQIRGVNAALPKPRVLFGKNTSADCSKEPSVAPLKDLKYSETFHSFHATFETFDLRTCLRAARTYFLAKGVKEERNLITLNDDEGVPQGYELNIDENQQYKDQDFLANLYLSIIIGFNEVMQLITKDYKNMTEEFIQDYIFQKVSKVYAGFQIPESEITLDKIQIILKAYNSFGEEVKIDFKDTISFKLTPYFFMVRIEQKNIKSQILNNTVLGSLVFAESFILQEGCYLLLTKEIPYFDLWNCQNDYSEKIEKMKKRILWEPLGKQISDELPKNRIFVQTGRKSNYGFDIPIMQASYYMHELGLRIETQRLGWFILFFKEMKEIQITQKMNHTWLIFKVDSNITFNSISKDTIALEFTGDALEQSFFKIKNYFEENQIKYEYQVDIPAIFQESQIAKKQILNQQSQGQKLITMNSIQNEQFFISYIESKQLMILNQMKDLKLSAYKNLYEQMQISQAITPVENHIGVILVNGSYCSGKRKFAENLIRFGSDNNLRLHLYKFDLNEMSELTEKSYLSGLLKFASEKKIQNTDVIVASVPHFINTKILIDYFSKSEKISNAFYIRTIATKININNIYSNFNKNPVNNVFTYGVEGYSQFLLLDTYNNYDADVNALNKTLSGVLPGAKIYKIMNNILNPALAKDILTSITFISEQNNLNRLKYSVQYDLLTSNGPSSVVFIPFKLPILREKIRDLIYKKILQNGNQTLVDTIEAEQKIAEFKELNKNSKDPLMIEIIKLKEKIEIQNAQTSDQAIKIDYVKGILRYDSKLKEGLEEITITPNYFIERTVKGVDAKEFTEELNGVSFKNVKYTGITNSIINDMGFVFAGKNLNKEKLLELLYKLVKPLNKQKLRQRKDLTEEEIVDIQFRNRGEGLENGEFYDGQFWRNIQGLILPHHPKKDEFIEEYLKQEEVRINQINEQLQQEWETWKQVYDKIHLDK
Consider B2, for which the binding result in assay [3] and in assay [4] was “binds” in each case.

For the origin of these results see PMC7116892 (Science (New York, N.Y.), 2021).
